{"source": "paper PMC4012986", "about": "“The Dimerization Domain in DapE Enzymes Is required for Catalysis” (PLoS ONE, 2014)", "key": {"[1]": {"system": "N[C@@H](CCC[C@H](NC(=O)CCC(=O)O)C(=O)O)C(=O)O", "assay": "purified protein", "settings": "50 mM phosphate pH 7.5, 25 °C, two equivalents Zn(II)"}, "[2]": {"target": "the molecule itself", "assay": "dynamic light scattering; DynaPro-801, 21°C; 2.0 mg/ml in crystallization buffer (250 mM NaCl, 20 mM HEPES pH 8.0, 1 mM TCEP)"}, "purified protein": {"substrate": "N[C@@H](CCC[C@H](NC(=O)CCC(=O)O)C(=O)O)C(=O)O", "assay": "purified protein", "settings": "50 mM phosphate pH 7.5, 25 °C, two equivalents Zn(II)", "remark": "listed apart in the source"}}, "data": [{"molecule": "WT-VcDapE (Vibrio cholerae O1 biovar El Tor str. N16961)", "values": [{"measurement": "Km", "setting": "[1]", "value": "1.2 ± 0.2", "unit": "mM"}, {"measurement": "kcat", "setting": "[1]", "value": "80 ± 10", "unit": "s⁻¹"}]}, {"molecule": "N-succinyl-L,L-diaminopimelic acid desuccinylase (DapE) from Haemophilus influenzae, wild type, full length (enzyme, also called HiDapE; WT-HiDapE; source: E. coli BL21(DE3) derivative with pMAGIC; purification of the wild type not described) MKEKVVSLAQDLIRRPSISPNDEGCQQIIAERLEKLGFQIEWMPFNDTLNLWAKHGTSEPVIAFAGHTDVVPTGDENQWSSPPFSAEIIDGMLYGRGAADMKGSLAAMIVAAEEYVKANPNHKGTIALLITSDEEATAKDGTIHVVETLMARDEKITYCMVGEPSSAKNLGDVVKNGRRGSITGNLYIQGIQGHVAYPHLAENPIHKAALFLQELTTYQWDKGNEFFPPTSLQIANIHAGTGSNNVIPAELYIQFNLRYCTEVTDEIIKQKVAEMLEKHNLKYRIEWNLSGKPFLTKPGKLLDSITSAIEETIGITPKAETGGGTSDGRFIALMGAEVVEFGPLNSTIHKVNECVSVEDLGKCGEIYHKMLVNLLDS", "values": [{"measurement": "binding result", "setting": "[2]", "value": "binds"}, {"measurement": "Km", "setting": "purified protein", "value": "0.8 ± 0.1", "unit": "mM"}, {"measurement": "kcat", "setting": "purified protein", "value": "114 ± 10", "unit": "s⁻¹"}]}]}
